Data taken from patent US20230346885A1 (published 2023).
Residue numbers refer to the chain shown, from its start.

What was measured:
Assay in all cases: binding, other
[1] = target: T1, ACTL8 peptide on HLA (human)
T1 peptide: ALDESNTYQL

[2] = target: T2, ACTL8 peptide on HLA (human)
T2 peptide: SLYASGLLTGV

[3] = target: T3, ACTL8 peptide on HLA (human)
T3 peptide: RCLFQLETV

[4] = target: T4, ASCL2 peptide on HLA (human)
T4 peptide: LLAEHDAVRNAL

[5] = target: T5, ASCL2 peptide on HLA (human)
T5 peptide: LLAEHDAVRNA

[6] = target: T6, BRDT peptide on HLA (human)
T6 peptide: EMFPKFTEV

[7] = target: T7, CALHM3 peptide on HLA (human)
T7 peptide: ALLDGKCFV

[8] = target: T8, CLDN6 peptide on HLA (human)
T8 peptide: TLIPVCWTA

B1: TCR of SEQ ID NOs 275 and 276 (TCR, V domains shown)
Valpha: KQEVTQIPAALSVPEGENLVLNCSFTDSAIYNLQWFRQDPGKGLTSLLLIQSSQREQTSGRLNASLDKSSGRSTLYIAASQPGDSATYLCAVRGYNKLIFGAGTRLAVHP
Vbeta: NAGVTQTPKFRILKIGQSMTLQCTQDMNHNYMYWYRQDPGMGLKLIYYSVGAGITDKGEVPNGYNVSRSTTEDFPLRLLSAAPSQTSVYFCASSYSPIVGAFFGQGTRLTVV
binding result [1]: recognises

B2: TCR of SEQ ID NOs 277 and 278 (TCR, V domains shown)
Valpha: B1 Valpha
Vbeta: NAGVTQTPKFRILKIGQSMTLQCAQDMNHNYMYWYRQDPGMGLKLIYYSVGAGITDKGEVPNGYNVSRSTTEDFPLRLELAAPSQTSVYFCASTRDTYYGYTFGSGTRLTVV
binding result [1]: recognises

B3: TCR of SEQ ID NOs 279 and 280 (TCR, V domains shown)
Valpha: KQEVTQIPAALSVPEGENLVLNCSFTDSAIYNLQWFRQDPGKGLTSLLLIQSSQREQTSGRLNASLDKSSGRSTLYIAASQPGDSATYLCATGFQKLVFGTGTRLLVSP
Vbeta: NAGVTQTPKFQVLKTGQSMTLQCAQDMNHNSMYWYRQDPGMGLRLIYYSASEGTTDKGEVPNGYNVSRLNKREFSLRLESAAPSQTSVYFCASTLGRLLTEAFFGQGTRLTVV
binding result [1]: recognises

B4: TCR of SEQ ID NOs 281 and 282 (TCR, V domains shown)
Valpha: B1 Valpha
Vbeta: NAGVTQTPKFRVLKTGQSMTLLCAQDMNHEYMYWYRQDPGMGLRLIHYSVGEGTTAKGEVPDGYNVSRLKKQNFLLGLESAAPSQTSVYFCASSFDVTEAFFGQGTRLTVV
binding result [2]: recognises

B5: TCR of SEQ ID NOs 283 and 284 (TCR, V domains shown)
Valpha: KQEVTQIPAALSVPEGENLVLNCSFTDSAIYNLQWFRQDPGKGLTSLLLIQSSQREQTSGRLNASLDKSSGRSTLYIAASQPGDSATYLCAVKKDAGNKLTFGGGTRVLVKP
Vbeta: NAGVTQTPKFRVLKTGQSMTLLCAQDMNHEYMYWYRQDPGMGLRLIYYSASEGTTDKGEVPNGYNVSRLNKREFSLRLESAAPSQTSVYFCASSDSRRGGLLLYNSPLHFGNGTRLTVT
binding result [2]: recognises

B6: TCR of SEQ ID NOs 285 and 286 (TCR, V domains shown)
Valpha: KQEVTQIPAALSVPEGENLVLNCSFTDSAIYNLQWFRQDPGKGLTSLLLIQSSQREQTSGRLNASLDKSSGRSTLYIAASQPGDSATYLCAVRAAGNKLTFGGGTRVLVKP
Vbeta: B5 Vbeta
binding result [2]: recognises

B7: TCR of SEQ ID NOs 287 and 288 (TCR, V domains shown)
Valpha: KQEVTQIPAALSVPEGENLVLNCSFTDSAIYNLQWFRQDPGKGLTSLLLIQSSQREQTSGRLNASLDKSSGRSTLYIAASQPGDSATYLCAVNYYNQGGKLIFGQGTELSVKP
Vbeta: NAGVTQTPKFQVLKTGQSMTLQCAQDMNHNSMYWYRQDPGMGLRLIYYSASEGTTDKGEVPNGYNVSRLNKREFSLRLESAAPSQTSVYFCASTPTYWDSYEQYFGPGTRLTVT
binding result [3]: recognises

B8: TCR of SEQ ID NOs 289 and 290 (TCR, V domains shown)
Valpha: B6 Valpha with R93D, A94S, A95S, N97S, K98R, G103E, R106Q, V107L, L108T, K110N
Vbeta: NAGVTQTPKFQVLKTGQSMTLQCAQDMNHEYMYWYRQDPGMGLRLIHYSVGAGITDQGEVPNGYNVSRSTTEDFPLRLLSAAPSQTSVYFCASRLLGGSGYTFGSGTRLTVV
binding result [3]: recognises

B9: TCR of SEQ ID NOs 291 and 292 (TCR, V domains shown)
Valpha: B3 Valpha with T92V, G93D, F94A, Q95D, V98I, L106Q, S108F
Vbeta: NAGVTQTPKFRILKIGQSMTLQCTQDMNHEYMYWYRQDPGMGLRLIHYSVGEGTTAKGEVPDGYNVSRLKKQNFLLGLESAAPSQTSVYFCASREVGRDEHFFGPGTRLTVL
binding result [3]: recognises

B10: TCR of SEQ ID NOs 293 and 294 (TCR, V domains shown)
Valpha: KQEVTQIPAALSVPEGENLVLNCSFTDSAIYNLQWFRQDPGKGLTSLLLIQSSQREQTSGRLNASLDKSSGRSTLYIAASQPGDSATYLCAVRQHTGRRALTFGSGTRLQVQP
Vbeta: NAGVTQTPKFRILKIGQSMTLQCTQDMNHNYMYWYRQDPGMGLKLIYYSVGAGITDKGEVPNGYNVSRSTTEDFPLRLELAAPSQTSVYFCASSYSPENTEAFFGQGTRLTVV
binding result [4]: recognises

B11: TCR of SEQ ID NOs 295 and 296 (TCR, V domains shown)
Valpha: B10 Valpha
Vbeta: NAGVTQTPKFRILKIGQSMTLQCTQDMNHNYMYWYRQDPGMGLRLIHYSVGAGITDQGEVPNGYNVSRSTTEDFPLRLLSAAPSQTSVYFCASSYSPEADIQYFGAGTRLSVL
binding result [4]: recognises

B12: TCR of SEQ ID NOs 297 and 298 (TCR, V domains shown)
Valpha: KQEVTQIPAALSVPEGENLVLNCSFTDSAIYNLQWFRQDPGKGLTSLLLIQSSQREQTSGRLNASLDKSSGRSTLYIAASQPGDSATYLCAVLTNDYKLSFGAGTTVTVRA
Vbeta: NAGVTQTPKFRVLKTGQSMTLLCAQDMNHEYMYWYRQDPGMGLRLIHYSVGEGTTAKGEVPDGYNVSRLKKQNFLLGLESAAPSQTSVYFCASSYSGFDSPLHFGNGTRLTVT
binding result [4]: recognises

B13: TCR of SEQ ID NOs 305 and 306 (TCR, V domains shown)
Valpha: KQEVTQIPAALSVPEGENLVLNCSFTDSAIYNLQWFRQDPGKGLTSLLLIQSSQREQTSGRLNASLDKSSGRSTLYIAASQPGDSATYLCAVRSSTDSWGKFQFGAGTQVVVTP
Vbeta: NAGVTQTPKFQVLKTGQSMTLQCAQDMNHEYMSWYRQDPGMGLRLIHYSVGAGITDQGEVPNGYNVSRSTTEDFPLRLLSAAPSQTSVYFCASSYSAGLTGELFFGEGSRLTVL
binding result [5]: recognises

B14: TCR of SEQ ID NOs 307 and 308 (TCR, V domains shown)
Valpha: B12 Valpha with L93T, T94D, N95S, D96W, Y97G, S100Q, T106Q, T108V, R110T, A111P
Vbeta: NAGVTQTPKFQVLKTGQSMTLQCAQDMNHNSMYWYRQDPGMGLRLIYYSVGAGITDQGEVPNGYNVSRSTTEDFPLRLLSAAPSQTSVYFCASSRGPINYGYTFGSGTRLTVV
binding result [5]: recognises

B15: TCR of SEQ ID NOs 309 and 310 (TCR, V domains shown)
Valpha: B6 Valpha with A94P, N97Q, K98N, L99F, T100V, G103P, V107L, L108S, K110L
Vbeta: NAGVTQTPKFQVLKTGQSMTLQCAQDMNHNSMYWYRQDPGMGLRLIYYSASEGTTDKGEVPNGYNVSRLNKREFSLRLESAAPSQTSVYFCASSEALWGGNTEAFFGQGTRLPVV
binding result [5]: recognises

B16: TCR of SEQ ID NOs 311 and 312 (TCR, V domains shown)
Valpha: B7 Valpha with N93T, Y94G, Y95G, N96T, Q97S, G98Y, I102T, E108I, S110T, K112H
Vbeta: NAGVTQTPKFRILKIGQSMTLQCTQDMNHNYMYWYRQDPGMGLKLIYYSVGAGITDKGEVPNGYNVSRSTTEDFPLRLELAAPSQTSVYFCASSYWAGVLTEAFFGQGTRLTVV
binding result [6]: recognises

B17: TCR of SEQ ID NOs 313 and 314 (TCR, V domains shown)
Valpha: KQEVTQIPAALSVPEGENLVLNCSFTDSAIYNLQWFRQDPGKGLTSLLLIQSSQREQTSGRLNASLDKSSGRSTLYIAASQPGDSATYLCAVSNYGGSQGNLIFGKGTKLSVKP
Vbeta: B12 Vbeta with S94T, Y95H, S96W, F98R
binding result [6]: recognises

B18: TCR of SEQ ID NOs 315 and 316 (TCR, V domains shown)
Valpha: KQEVTQIPAALSVPEGENLVLNCSFTDSAIYNLQWFRQDPGKGLTSLLLIQSSQREQTSGRLNASLDKSSGRSTLYIAASQPGDSATYLCAVSPRSNDYKLSFGAGTTVTVRA
Vbeta: NAGVTQTPKFRILKIGQSMTLQCTQDMNHNYMYWYRQDPGMGLKLIYYSVGAGTTDKGEVPNGYNVSRLNKREFSLRLESAAPSQTSVYFCASSATRRGDYGYTFGSGTRLTVV
binding result [6]: recognises

B19: TCR of SEQ ID NOs 323 and 324 (TCR, V domains shown)
Valpha: KQEVTQIPAALSVPEGENLVLNCSFTDSAIYNFQWFRQDPGKGLTSLLLIQSSQREQTSGRLNASLDKSSGRSTLYIAASQPGDSATYLCAAHPATGANSKLTFGKGITLSVRP
Vbeta: NAGVTQTPKFQVLKTGQGMTLQCAQDMNHNSMYWYRQDPGMGLRLIYYSASEGTTDKGEVPNGYNVSRLNKREFSLRLESAAPSQTSVYFCASSEASGSNSPLHFGNGTRLTVT
binding result [7]: recognises

B20: TCR of SEQ ID NOs 325 and 326 (TCR, V domains shown)
Valpha: QKEVEQNSGPLSVPEGAIASLNCTYSDRGSQSFFWYRQYSGKSPELIMFIYSNGDKEDGRFTAQLNKASQYVSLLIRDSQPSDSATYLCAVRTPSGSARQLTFGSGTQLTVLP
Vbeta: DAGVTQSPTHLIKTRGQHVTLRCSPKSGHDTVSWYQQALGQGPQFIFQYYGEEERQRGNFPDRFSGHQFPNYSSELNVNALLLGDSALYLCASSLGAGGGHSGNTIYFGEGSWLTVV
binding result [7]: recognises

B21: TCR of SEQ ID NOs 327 and 328 (TCR, V domains shown)
Valpha: GNSVTQMEGPVTLSEEAFLTINCTYTATGYPSLFWYVQYPGEGLQLLLKATKADDKGSNKGFEATYRKETTSFHLEKGSVQVSDSAVYFCAPHTDKLIFGTGTRLQVFP
Vbeta: DSGVTQTPKHLITATGQRVTLRCSPRSGDLSVYWYQQSLDQGLQFLIQYYNGEERAKGNILERFSAQQFPDLHSELNLSSLELGDSALYFCASSGGTGDGYTFGSGTRLTVV
binding result [7]: recognises

B22: TCR of SEQ ID NOs 329 and 330 (TCR, V domains shown)
Valpha: KQEVTQIPAALSVPEGENLVLNCSFTDSAIYNLQWFRQDPGKGLTSLLLIQSSQREQTSGRLNASLDKSSGRSTLYIAASQPGDSATYLCAVQGYGTALIFGKGTTLSVSS
Vbeta: NAGVTQTPKFQVLKTGQSMTLQCAQDMNHEYMSWYRQDPGMGLRLIHYSVGAGITDQGEVPNGYNVSRSTTEDFPLRLLSAAPSQTSVYFCASSQGPYMNTEAFFGQGTRLTVV
binding result [8]: recognises
